# Results reported in patent publication US20240270846A1 (published 2024).
# Target: T1, CD3 epsilon homodimer protein (UniProt P07766 23-126)
# T1 construct: also called CD3 (CD3 epsilon)
# Assay: SPR Biacore T200, antibody over immobilised CD3e homodimer;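 further: CD3 epsilon homodimer amine-coupled on a CM4 chip, run at 25 °C in HBS-EP+, Z = bound amount of each single-residue H chain variant over that of the parent antibody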
# Method: An appropriate amount of CD3 epsilon homodimer protein was immobilized onto Sensor chip CM4 (GE Healthcare Japan Corp.) by the amine coupling method. Then, the antibody having an appropriate concentration was injected thereto as an analyte and allowed to interact with the CD3 epsilon homodimer protein on the sensor chip. Then, the sensor chip was regenerated by the injection of 10 mmol/L glycine-HCl (pH 1.5). The assay was conducted at 25 degrees C., and HBS-EP+(GE Healthcare Japan Corp.) was used as a running buffer. […] Each parameter was calculated using Biacore T200 Evaluation Software (GE Healthcare Japan Corp.).
# Specifically, when the amount of the antibody comprising CE115HA000 bound was defined as X and the amount of the H chain one-amino acid altered form bound was defined as Y, a value of Z (ratio of amounts bound)=Y/X was used.
# T1 sequence (P07766 23-126): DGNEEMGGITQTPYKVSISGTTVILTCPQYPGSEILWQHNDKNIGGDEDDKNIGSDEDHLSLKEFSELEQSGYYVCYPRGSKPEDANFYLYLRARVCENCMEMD
row,Binder,ratio of amounts bound (Z=Y/X vs CE115HA000)
1,"CE115HA000 S52cG one-arm antibody (antibody, human IgG1, kappa, L234A L235A, N297A, name in Kabat numbering, one-arm antibody) heavy: QVQLVESGGGVVQPGRSLRLSCAASGFTFSNAWMHWVRQAPGKGLEWVAQIKAKGNNYATYYAESVKGRFTISRDDSKNSLYLQMNSLKTEDTAVYYCRYVHYGAYYGVDAWGQGTTVTVSSASTKGPSVFPLAPSSKSTSGGTAALGCLVKDYFPEPVTVSWNSGALTSGVHTFPAVLQSSGLYSLSSVVTVPSSSLGTQTYICNVNHKPSNTKVDKKVEPKSCDKTHTCPPCPAPEAAGGPSVFLFPPKPKDTLMISRTPEVTCVVVDVSHEDPEVKFNWYVDGVEVHNAKTKPREEQYASTYRVVSVLTVLHQDWLNGKEYKCKVSNKALPAPIEKTISKAKGQPREPQVYTLPPSRCELTKNQVSLSCAVKGFYPSDIAVEWESNGQPENNYKTTPPVLDSDGSFFLVSKLTVDKSRWQQGNVFSCSVMHEALHNHYTQKSLSLSPDYKDDDDK EPKSSDKTHTCPPCPAPELLGGPSVFLFPPKPKDTLMISRTPEVTCVVVDVSHEDPEVKFNWYVDGVEVHNAKTKPREEQYNSTYRVVSVLTVLHQDWLNGKEYKCKVSNKALPAPIEKTISKAKGQPREPQVCTLPPSRDELTKNQVSLWCLVKGFYPSDIAVEWESNGQPENNYKTTPPVLDSDGSFFLYSKLTVDKSRWQQGNVFSCSVMHEALHNRYTQKSLSLSP light: DIVMTQSPLSLPVTPGEPASISCRSSQSLVHSNRNTYLHWYQQKPGQAPRLLIYKVSNRFSGVPDRFSGSGSGTDFTLKISRVEAEDVGVYYCGQGTQVPYTFGQGTKLEIKRTVAAPSVFIFPPSDEQLKSGTASVVCLLNNFYPREAKVQWKVDNALQSGNSQESVTEQDSKDSTYSLSSTLTLSKADYEKHKVYACEVTHQGLSSPVTKSFNRGEC",0.97
2,"CE115HA000 S52cK one-arm antibody (antibody, human IgG1, kappa, L234A L235A, N297A, name in Kabat numbering, one-arm antibody) heavy: QVQLVESGGGVVQPGRSLRLSCAASGFTFSNAWMHWVRQAPGKGLEWVAQIKAKKNNYATYYAESVKGRFTISRDDSKNSLYLQMNSLKTEDTAVYYCRYVHYGAYYGVDAWGQGTTVTVSSASTKGPSVFPLAPSSKSTSGGTAALGCLVKDYFPEPVTVSWNSGALTSGVHTFPAVLQSSGLYSLSSVVTVPSSSLGTQTYICNVNHKPSNTKVDKKVEPKSCDKTHTCPPCPAPEAAGGPSVFLFPPKPKDTLMISRTPEVTCVVVDVSHEDPEVKFNWYVDGVEVHNAKTKPREEQYASTYRVVSVLTVLHQDWLNGKEYKCKVSNKALPAPIEKTISKAKGQPREPQVYTLPPSRCELTKNQVSLSCAVKGFYPSDIAVEWESNGQPENNYKTTPPVLDSDGSFFLVSKLTVDKSRWQQGNVFSCSVMHEALHNHYTQKSLSLSPDYKDDDDK EPKSSDKTHTCPPCPAPELLGGPSVFLFPPKPKDTLMISRTPEVTCVVVDVSHEDPEVKFNWYVDGVEVHNAKTKPREEQYNSTYRVVSVLTVLHQDWLNGKEYKCKVSNKALPAPIEKTISKAKGQPREPQVCTLPPSRDELTKNQVSLWCLVKGFYPSDIAVEWESNGQPENNYKTTPPVLDSDGSFFLYSKLTVDKSRWQQGNVFSCSVMHEALHNRYTQKSLSLSP light: DIVMTQSPLSLPVTPGEPASISCRSSQSLVHSNRNTYLHWYQQKPGQAPRLLIYKVSNRFSGVPDRFSGSGSGTDFTLKISRVEAEDVGVYYCGQGTQVPYTFGQGTKLEIKRTVAAPSVFIFPPSDEQLKSGTASVVCLLNNFYPREAKVQWKVDNALQSGNSQESVTEQDSKDSTYSLSSTLTLSKADYEKHKVYACEVTHQGLSSPVTKSFNRGEC",1.19
3,"CE115HA000 S52cY one-arm antibody (antibody, human IgG1, kappa, L234A L235A, N297A, name in Kabat numbering, one-arm antibody) heavy: QVQLVESGGGVVQPGRSLRLSCAASGFTFSNAWMHWVRQAPGKGLEWVAQIKAKYNNYATYYAESVKGRFTISRDDSKNSLYLQMNSLKTEDTAVYYCRYVHYGAYYGVDAWGQGTTVTVSSASTKGPSVFPLAPSSKSTSGGTAALGCLVKDYFPEPVTVSWNSGALTSGVHTFPAVLQSSGLYSLSSVVTVPSSSLGTQTYICNVNHKPSNTKVDKKVEPKSCDKTHTCPPCPAPEAAGGPSVFLFPPKPKDTLMISRTPEVTCVVVDVSHEDPEVKFNWYVDGVEVHNAKTKPREEQYASTYRVVSVLTVLHQDWLNGKEYKCKVSNKALPAPIEKTISKAKGQPREPQVYTLPPSRCELTKNQVSLSCAVKGFYPSDIAVEWESNGQPENNYKTTPPVLDSDGSFFLVSKLTVDKSRWQQGNVFSCSVMHEALHNHYTQKSLSLSPDYKDDDDK EPKSSDKTHTCPPCPAPELLGGPSVFLFPPKPKDTLMISRTPEVTCVVVDVSHEDPEVKFNWYVDGVEVHNAKTKPREEQYNSTYRVVSVLTVLHQDWLNGKEYKCKVSNKALPAPIEKTISKAKGQPREPQVCTLPPSRDELTKNQVSLWCLVKGFYPSDIAVEWESNGQPENNYKTTPPVLDSDGSFFLYSKLTVDKSRWQQGNVFSCSVMHEALHNRYTQKSLSLSP light: DIVMTQSPLSLPVTPGEPASISCRSSQSLVHSNRNTYLHWYQQKPGQAPRLLIYKVSNRFSGVPDRFSGSGSGTDFTLKISRVEAEDVGVYYCGQGTQVPYTFGQGTKLEIKRTVAAPSVFIFPPSDEQLKSGTASVVCLLNNFYPREAKVQWKVDNALQSGNSQESVTEQDSKDSTYSLSSTLTLSKADYEKHKVYACEVTHQGLSSPVTKSFNRGEC",1.11
4,"CE115HA000 S52cQ one-arm antibody (antibody, human IgG1, kappa, L234A L235A, N297A, name in Kabat numbering, one-arm antibody) heavy: QVQLVESGGGVVQPGRSLRLSCAASGFTFSNAWMHWVRQAPGKGLEWVAQIKAKQNNYATYYAESVKGRFTISRDDSKNSLYLQMNSLKTEDTAVYYCRYVHYGAYYGVDAWGQGTTVTVSSASTKGPSVFPLAPSSKSTSGGTAALGCLVKDYFPEPVTVSWNSGALTSGVHTFPAVLQSSGLYSLSSVVTVPSSSLGTQTYICNVNHKPSNTKVDKKVEPKSCDKTHTCPPCPAPEAAGGPSVFLFPPKPKDTLMISRTPEVTCVVVDVSHEDPEVKFNWYVDGVEVHNAKTKPREEQYASTYRVVSVLTVLHQDWLNGKEYKCKVSNKALPAPIEKTISKAKGQPREPQVYTLPPSRCELTKNQVSLSCAVKGFYPSDIAVEWESNGQPENNYKTTPPVLDSDGSFFLVSKLTVDKSRWQQGNVFSCSVMHEALHNHYTQKSLSLSPDYKDDDDK EPKSSDKTHTCPPCPAPELLGGPSVFLFPPKPKDTLMISRTPEVTCVVVDVSHEDPEVKFNWYVDGVEVHNAKTKPREEQYNSTYRVVSVLTVLHQDWLNGKEYKCKVSNKALPAPIEKTISKAKGQPREPQVCTLPPSRDELTKNQVSLWCLVKGFYPSDIAVEWESNGQPENNYKTTPPVLDSDGSFFLYSKLTVDKSRWQQGNVFSCSVMHEALHNRYTQKSLSLSP light: DIVMTQSPLSLPVTPGEPASISCRSSQSLVHSNRNTYLHWYQQKPGQAPRLLIYKVSNRFSGVPDRFSGSGSGTDFTLKISRVEAEDVGVYYCGQGTQVPYTFGQGTKLEIKRTVAAPSVFIFPPSDEQLKSGTASVVCLLNNFYPREAKVQWKVDNALQSGNSQESVTEQDSKDSTYSLSSTLTLSKADYEKHKVYACEVTHQGLSSPVTKSFNRGEC",1.04
5,"CE115HA000 S52cL one-arm antibody (antibody, human IgG1, kappa, L234A L235A, N297A, name in Kabat numbering, one-arm antibody) heavy: QVQLVESGGGVVQPGRSLRLSCAASGFTFSNAWMHWVRQAPGKGLEWVAQIKAKLNNYATYYAESVKGRFTISRDDSKNSLYLQMNSLKTEDTAVYYCRYVHYGAYYGVDAWGQGTTVTVSSASTKGPSVFPLAPSSKSTSGGTAALGCLVKDYFPEPVTVSWNSGALTSGVHTFPAVLQSSGLYSLSSVVTVPSSSLGTQTYICNVNHKPSNTKVDKKVEPKSCDKTHTCPPCPAPEAAGGPSVFLFPPKPKDTLMISRTPEVTCVVVDVSHEDPEVKFNWYVDGVEVHNAKTKPREEQYASTYRVVSVLTVLHQDWLNGKEYKCKVSNKALPAPIEKTISKAKGQPREPQVYTLPPSRCELTKNQVSLSCAVKGFYPSDIAVEWESNGQPENNYKTTPPVLDSDGSFFLVSKLTVDKSRWQQGNVFSCSVMHEALHNHYTQKSLSLSPDYKDDDDK EPKSSDKTHTCPPCPAPELLGGPSVFLFPPKPKDTLMISRTPEVTCVVVDVSHEDPEVKFNWYVDGVEVHNAKTKPREEQYNSTYRVVSVLTVLHQDWLNGKEYKCKVSNKALPAPIEKTISKAKGQPREPQVCTLPPSRDELTKNQVSLWCLVKGFYPSDIAVEWESNGQPENNYKTTPPVLDSDGSFFLYSKLTVDKSRWQQGNVFSCSVMHEALHNRYTQKSLSLSP light: DIVMTQSPLSLPVTPGEPASISCRSSQSLVHSNRNTYLHWYQQKPGQAPRLLIYKVSNRFSGVPDRFSGSGSGTDFTLKISRVEAEDVGVYYCGQGTQVPYTFGQGTKLEIKRTVAAPSVFIFPPSDEQLKSGTASVVCLLNNFYPREAKVQWKVDNALQSGNSQESVTEQDSKDSTYSLSSTLTLSKADYEKHKVYACEVTHQGLSSPVTKSFNRGEC",0.98
6,"CE115HA000 S52cV one-arm antibody (antibody, human IgG1, kappa, L234A L235A, N297A, name in Kabat numbering, one-arm antibody) heavy: QVQLVESGGGVVQPGRSLRLSCAASGFTFSNAWMHWVRQAPGKGLEWVAQIKAKVNNYATYYAESVKGRFTISRDDSKNSLYLQMNSLKTEDTAVYYCRYVHYGAYYGVDAWGQGTTVTVSSASTKGPSVFPLAPSSKSTSGGTAALGCLVKDYFPEPVTVSWNSGALTSGVHTFPAVLQSSGLYSLSSVVTVPSSSLGTQTYICNVNHKPSNTKVDKKVEPKSCDKTHTCPPCPAPEAAGGPSVFLFPPKPKDTLMISRTPEVTCVVVDVSHEDPEVKFNWYVDGVEVHNAKTKPREEQYASTYRVVSVLTVLHQDWLNGKEYKCKVSNKALPAPIEKTISKAKGQPREPQVYTLPPSRCELTKNQVSLSCAVKGFYPSDIAVEWESNGQPENNYKTTPPVLDSDGSFFLVSKLTVDKSRWQQGNVFSCSVMHEALHNHYTQKSLSLSPDYKDDDDK EPKSSDKTHTCPPCPAPELLGGPSVFLFPPKPKDTLMISRTPEVTCVVVDVSHEDPEVKFNWYVDGVEVHNAKTKPREEQYNSTYRVVSVLTVLHQDWLNGKEYKCKVSNKALPAPIEKTISKAKGQPREPQVCTLPPSRDELTKNQVSLWCLVKGFYPSDIAVEWESNGQPENNYKTTPPVLDSDGSFFLYSKLTVDKSRWQQGNVFSCSVMHEALHNRYTQKSLSLSP light: DIVMTQSPLSLPVTPGEPASISCRSSQSLVHSNRNTYLHWYQQKPGQAPRLLIYKVSNRFSGVPDRFSGSGSGTDFTLKISRVEAEDVGVYYCGQGTQVPYTFGQGTKLEIKRTVAAPSVFIFPPSDEQLKSGTASVVCLLNNFYPREAKVQWKVDNALQSGNSQESVTEQDSKDSTYSLSSTLTLSKADYEKHKVYACEVTHQGLSSPVTKSFNRGEC",0.93
